Source: US20070197457A1

Legend:
[1] = biological target: GAL4 DNA binding domain fused in-frame to full-length SMAD1 (UniProt P04386); test: cell-based or functional assay
[2] = biological target: SMAD1 (wild-type, full-length R-SMAD); test: cell-based or functional assay

Row | Substance | GAL4/UAS-luciferase reporter, caALK6-receptor-mediated trans-activation of SMAD1, maximum inhibition [1] | SMAD1-SBE CAT reporter (SMAD1-mediated transcription), maximum reduction [2] [%] | GAL4/UAS-luciferase reporter, SMAD trans-activation activity at higher amounts of TAK1dn [1] [%] | GAL4/UAS-luciferase reporter, SMAD trans-activation, increase at low concentrations of TAK1dn [1] [%]
1 | constitutively active TAK1 (TAK1ca) lacking the 22 N-terminal amino acids (from UniProt Q62073 23-579) (enzyme) | 40 | 10 | – | –
2 | dominant-negative TAK1 (TAK1dn) mutant (K63W) (from UniProt Q62073 1-579) (enzyme) | – | – | 70 | 35
